For this test, the target named is T1, PPARγ2 (Homo sapiens, UniProt P37231).
T1 construct: expressed in transfected cells; host or cells: 293T
T1 sequence (P37231 1-505): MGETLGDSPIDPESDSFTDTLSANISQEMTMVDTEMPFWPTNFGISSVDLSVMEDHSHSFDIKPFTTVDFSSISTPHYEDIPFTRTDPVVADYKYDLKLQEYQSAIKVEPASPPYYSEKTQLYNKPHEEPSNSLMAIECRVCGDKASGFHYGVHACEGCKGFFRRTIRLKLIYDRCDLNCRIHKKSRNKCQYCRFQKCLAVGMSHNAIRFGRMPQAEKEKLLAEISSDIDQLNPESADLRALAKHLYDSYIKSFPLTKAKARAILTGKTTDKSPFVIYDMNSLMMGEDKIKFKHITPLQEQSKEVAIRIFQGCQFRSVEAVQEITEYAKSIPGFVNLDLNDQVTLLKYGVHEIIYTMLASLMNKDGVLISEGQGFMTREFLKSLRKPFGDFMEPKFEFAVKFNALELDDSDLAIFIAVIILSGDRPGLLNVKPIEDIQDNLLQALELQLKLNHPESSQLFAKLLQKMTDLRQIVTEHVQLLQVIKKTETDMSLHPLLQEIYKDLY
Kind of test: PPARγ2 transcriptional activity, FABP4-Luc luciferase reporter in transfected 293T cells. Type of test: cell-based. The settings on record: for PPARγ2 transcriptional activity (relative luciferase activity): sLZIP or deletion mutants 0.1 μg, RZD treated. On the procedure: C3H10T1/2 and 293T cells were plated in a 12-well culture dish at a density of 2×10^5 cells/well and incubated for 24 hours. Then, according to instructions of the manufacturer, the cells were transfected with a 0.2 μg of reporter genes and 0.1 to 0.5 μg of a laboratory plasmid using Lipofectamine 2000 or Genefectine. After 24 hours, the cells were cultured in a serum-free DMEM with or without 10 nM of rosiglitazone. siRNAs were prepared using sLZIP and HDAC target sequences (Table 1). For an RNA interference experiment, according to instructions of the manufacturer, the cells were transfected with scrambled control group RNA and appropriate siRNAs using Lipofectamine 2000. Human MSC and C3H10T/1/2 cells were infected with an adenovirus vector containing cDNA of human sLZIP or an empty vector. The infected medium was exchanged with a fresh medium after two hours.
Appropriately transfected cells were washed with cold PBS twice, and a reporter lysis buffer (Promega) was used and lysed in a culture dish. Luciferase analysis was performed using a luciferase analysis system (Promega Corporation, Madison, Wis.). A luciferase activity was recorded in Luminometer 20/20^n (Turner BioSystems, Sunnyvale, Calif.) according to instructions of the manufacturer. The luciferase activity was normalized to a β-galactosidase activity. For β-galactosidase analysis, CMV-β-galactosidase was transfected with luciferase reporter genes. All pieces of data were represented as mean±standard deviation of the results from at least three independent experiments.
In order to examine an effect of sLZIP on the transcriptional activity of PPARγ2, 293T cells were temporarily transfected with PPARγ2 (0.5 μg), β-galactosidase (0.1 μg), FABP4-Luc reporter genes (0.2 μg) and sLZIP at different contents (0.1 to 0.5 μg). After the transfection, the cells were stimulated with or without 10 nM of rosiglitazone (RZD) (FIG. 1A), pioglitazone (PZD) (FIG. 1B), and troglitazone (TZD) (FIG. 1C). A relative luciferase activity was analyzed with or without cell ligand treatment 24 hours after transfection. Also, the 293T cells were transiently transfected with si-sLZIP at different contents (50 and 100 nM), and the cells were treated or not treated with RZD (FIG. 1D). FABP4-Luc stable C3H10T1/2 cells were infected with a sLZIP-expressing adenovirus, and then differentiated into adipocytes for 4 days (FIG. 1E). A luciferase activity was normalized to a β-galactosidase activity and represented as a relative activity (fold change). All experiments were repeated three times, and bars in the graph represent mean±standard deviation. *, P<0.05; **, P<0.01
For this purpose, 293T cells were transiently transfected with PPARγ2 (0.5 μg), β-galactosidase (0.1 μg), FABP4-Luc reporter genes (0.2 μg) and sLZIP (0.1 μg). After the transfection, the cells were stimulated with or without 10 nM of RZD and 10 nM of TSA (FIG. 4A). A promoter activity was measured according to luciferase analysis. In the 293T cells, FABP4-Luc reporter genes, sLZIP, PPAR, β-galactosidase, and 100 nM of si-RNAs and HDAC1, 2, 3 and 8 for a control group were expressed. After the transfection, the cells were stimulated with or without 10 nM of RZD, and a promoter activity was measured (FIG. 4B). 293T cells were temporarily transfected with FABP4-Luc reporter genes, PPARγ2, β-galactosidase, HDAC3 (0.5 μg) and sLZIP (0.1 μg). After the transfection, the cells were stimulated with or without 10 nM of RZD, and luciferase analysis was performed (FIG. 4C). A luciferase activity was normalized to a β-galactosidase activity and represented as a relative intensity (fold change). All experiments were repeated three times, and bars in the graph represent mean±standard deviation. GFP-sLZIP expression constructs were expressed in C3H10T1/2 cells, rabbit anti-HDAC3 antibodies and Texas Red-labeled anti-rabbit antibodies were used and analysis was performed under a fluorescence microscope. The nucleus was stained with DAPI (FIG. 4D). […]
(In a reporter assay the amount or activity of a reporter protein is the signal.)

B1: sLZIP: human small leucine-zipper protein, isoform of LZIP, 354 amino acids, no transmembrane domain, GenBank FJ263669, SEQ ID NO: 1 (protein, listed as Homo sapiens)
chain: MELELDAGDQDLLAFLLEESGDLGTAPDEAVRAPLDWALPLSEVPSDWEVDDLLCSLLSPPASLNILSSSNPCLVHHDHTYSLPRETVSMDLESESCRKEGTQMTPQHMEELAEQEIARLVLTDEEKSLLEKEGLILPETLPLTKTEEQILKRVRRKIRNKRSAQESRRKKKVYVGGLESRVLKYTAQNMELQNKVQLLEEQNLSLLDQLRKLQAMVIEISNKTSSSSMYSSDTRGSLPAEHGVLSRQLRALPSEDPYQLELPALQSEVPKDSTHQWLDGSDCVLQAPGNTSCLLHYMPQAPSAEPPLEWPFPDLFSEPLCRGPILPLQANLTRKGGWLPTGSPSVILQDRYSG
With B1, the “PPARγ2 transcriptional activity (relative luciferase activity)” value is reported as “still inhibited the PPARγ2 transcriptional activity”. Further, the “sLZIP-mediated PPARγ2 transcriptional activity” value (sLZIP 0.1 μg together with HDAC3 0.5 μg, with or without 10 nM RZD) is “significantly down-regulated”. Also, the “transcriptional activity of PPARγ2 (relative luciferase activity)” value (sLZIP 0.1 μg, cells treated with 10 nM TSA) was “did not decrease the transcriptional activity of PPARγ2”. The “transcriptional activity of PPARγ2 (relative luciferase activity)” value (sLZIP 0.1 μg, no TSA) is recorded as “inhibits the transcriptional activity of PPARγ2”. Further, for the setting “sLZIP 0.1 to 0.5 μg, with or without 10 nM RZD, PZD or TZD, 24 hours”, the “transcriptional activity of PPARγ2 (relative luciferase activity)” value was “inhibits the transcriptional activity of PPARγ2 in a concentration-dependent manner”.

B2: N domains of sLZIP: N-terminal deletion mutant of sLZIP (1-228) (protein)
chain: MELELDAGDQDLLAFLLEESGDLGTAPDEAVRAPLDWALPLSEVPSDWEVDDLLCSLLSPPASLNILSSSNPCLVHHDHTYSLPRETVSMDLESESCRKEGTQMTPQHMEELAEQEIARLVLTDEEKSLLEKEGLILPETLPLTKTEEQILKRVRRKIRNKRSAQESRRKKKVYVGGLESRVLKYTAQNMELQNKVQLLEEQNLSLLDQLRKLQAMVIEISNKTSSSS
modifications: left off: a dimerising Fc or GST
As for B2, the “PPARγ2 transcriptional activity (relative luciferase activity)” value is given as “inhibited”.

These data come from patent publication US10456446B2, “Use of human small leucine zipper protein in osteogenesis procedure” (Korea University Research and Business Foundation, priority 2013, dated 2019).
